These results are taken from patent US20160120951A1 (ZEALAND PHARMA A S, published 2016).

Assay [1] has as its target human glucagon-like peptide 1 receptor (GLP-1R) (human, UniProt P43220 24-463). As to the kind of experiment: cell-based or functional assay.
For assay [2], the target named is human glucagon receptor (Glucagon-R) (human, UniProt P47871 26-477). As to the kind of experiment: cell-based or functional assay.

Numbered stars: 1 amine (or outer) side, 2 acyl side, 3 side chain; on linkers, the order of the positions; unused ones are H or OH. Square brackets hold non-standard residues; d marks the D form. Side chains are listed from the residue outwards. * marks the point of attachment. γGlu = O=C(O)[C@H](CCC(=O)[*:2])N[*:1]; Palmitoyl = CCCCCCCCCCCCCCCC(=O)*; Aib = CC(C)(N)C(=O)O

Sequence of human glucagon-like peptide 1 receptor (GLP-1R) (P43220 24-463): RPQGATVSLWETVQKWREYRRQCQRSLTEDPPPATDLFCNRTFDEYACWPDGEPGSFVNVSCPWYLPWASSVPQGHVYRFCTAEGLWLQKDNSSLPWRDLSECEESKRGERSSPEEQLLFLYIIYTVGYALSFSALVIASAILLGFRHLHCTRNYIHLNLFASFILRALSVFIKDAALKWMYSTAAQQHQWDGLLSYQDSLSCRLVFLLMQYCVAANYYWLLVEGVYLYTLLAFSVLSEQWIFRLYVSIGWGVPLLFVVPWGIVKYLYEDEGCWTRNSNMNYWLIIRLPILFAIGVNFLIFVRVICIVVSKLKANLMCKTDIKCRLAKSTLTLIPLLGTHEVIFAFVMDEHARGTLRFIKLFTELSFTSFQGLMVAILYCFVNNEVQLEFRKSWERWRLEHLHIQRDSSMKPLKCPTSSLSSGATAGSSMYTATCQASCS

B1: Compound 22 (peptide)
peptide: H-H[Aib]EGTFTSDYSKYLDSK([γGlu-Palmitoyl])AAHDFVEWLLSA-NH2
SMILES: CCCCCCCCCCCCCCCC(=O)N[C@@H](CCC(=O)NCCCC[C@H](NC(=O)[C@H](CO)NC(=O)[C@H](CC(=O)O)NC(=O)[C@H](CC(C)C)NC(=O)[C@H](Cc1ccc(O)cc1)NC(=O)[C@H](CCCCN)NC(=O)[C@H](CO)NC(=O)[C@H](Cc1ccc(O)cc1)NC(=O)[C@H](CC(=O)O)NC(=O)[C@H](CO)NC(=O)[C@@H](NC(=O)[C@H](Cc1ccccc1)NC(=O)[C@@H](NC(=O)CNC(=O)[C@H](CCC(=O)O)NC(=O)C(C)(C)NC(=O)[C@@H](N)Cc1c[nH]cn1)[C@@H](C)O)[C@@H](C)O)C(=O)N[C@@H](C)C(=O)N[C@@H](C)C(=O)N[C@@H](Cc1c[nH]cn1)C(=O)N[C@@H](CC(=O)O)C(=O)N[C@@H](Cc1ccccc1)C(=O)N[C@H](C(=O)N[C@@H](CCC(=O)O)C(=O)N[C@@H](Cc1c[nH]c2ccccc12)C(=O)N[C@@H](CC(C)C)C(=O)N[C@@H](CC(C)C)C(=O)N[C@@H](CO)C(=O)N[C@@H](C)C(N)=O)C(C)C)C(=O)O
As for B1, the “EC50 (nM) GLP-1R, cAMP formation” value in assay [1] came out at 0.014 nM. Also, in assay [2], the “EC50 (nM) GluR, cAMP formation” value is 26.4 nM.

B2: Compound 21 (peptide)
peptide: HXQGTFTSDYSKYLDSKAAHDFVEWLLSA
modifications: Aib at position 2; K(Hexadecanoyl-isoGlu) at position 17; free C-terminal acid (OH)
On to B2, for which the “EC50 (nM) GLP-1R, cAMP formation” value in assay [1] came to 0.077 nM. Moreover, in assay [2], the “EC50 (nM) GluR, cAMP formation” value amounted to 0.15 nM.

B3: Compound 24 (peptide)
peptide: HXQGTFTSDYSKYLDSKAAHDFVEWLLSA
modifications: Aib at position 2; K([2-Butyloctanoyl]-isoGlu) at position 17; C-terminal amide (NH2)
As for B3, the “EC50 (nM) GLP-1R, cAMP formation” value in assay [1] stood at 0.161 nM. Besides, the “EC50 (nM) GluR, cAMP formation” value in assay [2] stood at 0.133 nM.

B4: Compound 18 (peptide)
peptide: H-H[Aib]QGTFTSDYSKYLDSK([γGlu-Palmitoyl])AAHDFVEWLLS-OH
SMILES: CCCCCCCCCCCCCCCC(=O)N[C@@H](CCC(=O)NCCCC[C@H](NC(=O)[C@H](CO)NC(=O)[C@H](CC(=O)O)NC(=O)[C@H](CC(C)C)NC(=O)[C@H](Cc1ccc(O)cc1)NC(=O)[C@H](CCCCN)NC(=O)[C@H](CO)NC(=O)[C@H](Cc1ccc(O)cc1)NC(=O)[C@H](CC(=O)O)NC(=O)[C@H](CO)NC(=O)[C@@H](NC(=O)[C@H](Cc1ccccc1)NC(=O)[C@@H](NC(=O)CNC(=O)[C@H](CCC(N)=O)NC(=O)C(C)(C)NC(=O)[C@@H](N)Cc1c[nH]cn1)[C@@H](C)O)[C@@H](C)O)C(=O)N[C@@H](C)C(=O)N[C@@H](C)C(=O)N[C@@H](Cc1c[nH]cn1)C(=O)N[C@@H](CC(=O)O)C(=O)N[C@@H](Cc1ccccc1)C(=O)N[C@H](C(=O)N[C@@H](CCC(=O)O)C(=O)N[C@@H](Cc1c[nH]c2ccccc12)C(=O)N[C@@H](CC(C)C)C(=O)N[C@@H](CC(C)C)C(=O)N[C@@H](CO)C(=O)O)C(C)C)C(=O)O
For B4, the “EC50 (nM) GLP-1R, cAMP formation” value in assay [1] turned out to be 0.066 nM. Also, in assay [2], the “EC50 (nM) GluR, cAMP formation” value is 0.091 nM.
As for HXQGTFTSDYSKYLDSKAAHDFVEWLLSA (Aib at position 2; K(Dodecanoyl-isoGlu) at position 17; C-terminal amide (NH2)) [Compound 26], the “EC50 (nM) GLP-1R, cAMP formation” value in assay [1] was 0.097 nM. Also, in assay [2], the “EC50 (nM) GluR, cAMP formation” value was 0.116 nM.

B5: Compound 27 (peptide)
peptide: HXQGTFTSDYSKYLDSKAAHDFVEWLLSA
modifications: Aib at position 2; K(Hexadecanoyl-[4-Aminobutanoyl]) at position 17; C-terminal amide (NH2)
Turning to B5, in assay [1], the “EC50 (nM) GLP-1R, cAMP formation” value is 0.152 nM. Also, in assay [2], the “EC50 (nM) GluR, cAMP formation” value stood at 0.147 nM.

B6: Compound 29 (peptide)
peptide: HXQGTFTSDYSKYLDSKAAHDFVEWLLSA
modifications: Aib at position 2; K(Hexadecanoyl-[8-Aminooctanoyl]) at position 17; C-terminal amide (NH2)
In the case of B6, in assay [1], the “EC50 (nM) GLP-1R, cAMP formation” value was determined as 0.199 nM. The “EC50 (nM) GluR, cAMP formation” value in assay [2] worked out at 0.123 nM.

B7: Compound 30 (peptide)
peptide: HXQGTFTSDYSKYLDSKAAHDFVEWLLSA
modifications: Aib at position 2; K(Hexadecanoyl-isoLys) at position 17; C-terminal amide (NH2)
B7: the “EC50 (nM) GLP-1R, cAMP formation” value in assay [1] was 0.132 nM. Also, in assay [2], the “EC50 (nM) GluR, cAMP formation” value is 0.11 nM.

B8: Compound 19 (peptide)
peptide: H-H[Aib]QGTFTSDYSKYLDSK([γGlu-Palmitoyl])AAHDFVEWLL-OH
SMILES: CCCCCCCCCCCCCCCC(=O)N[C@@H](CCC(=O)NCCCC[C@H](NC(=O)[C@H](CO)NC(=O)[C@H](CC(=O)O)NC(=O)[C@H](CC(C)C)NC(=O)[C@H](Cc1ccc(O)cc1)NC(=O)[C@H](CCCCN)NC(=O)[C@H](CO)NC(=O)[C@H](Cc1ccc(O)cc1)NC(=O)[C@H](CC(=O)O)NC(=O)[C@H](CO)NC(=O)[C@@H](NC(=O)[C@H](Cc1ccccc1)NC(=O)[C@@H](NC(=O)CNC(=O)[C@H](CCC(N)=O)NC(=O)C(C)(C)NC(=O)[C@@H](N)Cc1c[nH]cn1)[C@@H](C)O)[C@@H](C)O)C(=O)N[C@@H](C)C(=O)N[C@@H](C)C(=O)N[C@@H](Cc1c[nH]cn1)C(=O)N[C@@H](CC(=O)O)C(=O)N[C@@H](Cc1ccccc1)C(=O)N[C@H](C(=O)N[C@@H](CCC(=O)O)C(=O)N[C@@H](Cc1c[nH]c2ccccc12)C(=O)N[C@@H](CC(C)C)C(=O)N[C@@H](CC(C)C)C(=O)O)C(C)C)C(=O)O
Turning to B8, the “EC50 (nM) GLP-1R, cAMP formation” value in assay [1] was 0.048 nM. The “EC50 (nM) GluR, cAMP formation” value in assay [2] is 0.483 nM.

B9: Compound 32 (peptide)
peptide: HXQGTFTSDYSKYLDSXAAHDFVEWLLSA
modifications: Aib at position 2; Orn(Hexadecanoyl-isoGlu) at position 17; C-terminal amide (NH2)
With B9, the “EC50 (nM) GLP-1R, cAMP formation” value in assay [1] came out at 0.195 nM. In addition, in assay [2], the “EC50 (nM) GluR, cAMP formation” value came out at 0.193 nM.

B10: Compound 20 (peptide)
peptide: H-H[Aib]EGTFTSDYSKYLDSK([γGlu-Palmitoyl])AAHDFVEWLLSA-OH
SMILES: CCCCCCCCCCCCCCCC(=O)N[C@@H](CCC(=O)NCCCC[C@H](NC(=O)[C@H](CO)NC(=O)[C@H](CC(=O)O)NC(=O)[C@H](CC(C)C)NC(=O)[C@H](Cc1ccc(O)cc1)NC(=O)[C@H](CCCCN)NC(=O)[C@H](CO)NC(=O)[C@H](Cc1ccc(O)cc1)NC(=O)[C@H](CC(=O)O)NC(=O)[C@H](CO)NC(=O)[C@@H](NC(=O)[C@H](Cc1ccccc1)NC(=O)[C@@H](NC(=O)CNC(=O)[C@H](CCC(=O)O)NC(=O)C(C)(C)NC(=O)[C@@H](N)Cc1c[nH]cn1)[C@@H](C)O)[C@@H](C)O)C(=O)N[C@@H](C)C(=O)N[C@@H](C)C(=O)N[C@@H](Cc1c[nH]cn1)C(=O)N[C@@H](CC(=O)O)C(=O)N[C@@H](Cc1ccccc1)C(=O)N[C@H](C(=O)N[C@@H](CCC(=O)O)C(=O)N[C@@H](Cc1c[nH]c2ccccc12)C(=O)N[C@@H](CC(C)C)C(=O)N[C@@H](CC(C)C)C(=O)N[C@@H](CO)C(=O)N[C@@H](C)C(=O)O)C(C)C)C(=O)O
As for B10, the “EC50 (nM) GLP-1R, cAMP formation” value in assay [1] was found to be 0.057 nM. Moreover, the “EC50 (nM) GluR, cAMP formation” value in assay [2] was determined as 13.3 nM.

B11: Compound 25 (peptide)
peptide: HXQGTFTSDYSKYLDSKAAHDFVEWLLSA
modifications: Aib at position 2; K(Octadecanoyl-isoGlu) at position 17; C-terminal amide (NH2)
Turning to B11, the “EC50 (nM) GLP-1R, cAMP formation” value in assay [1] is 0.069 nM. Besides, the “EC50 (nM) GluR, cAMP formation” value in assay [2] is 0.103 nM.

B12: Compound 31 (peptide)
peptide: HXQGTFTSDYSKYLDSKAAHDFVEWLLSA
modifications: Aib at position 2; K(Hexadecanoyl-[3-Aminopropanoyl]) at position 17; C-terminal amide (NH2)
As to B12, the “EC50 (nM) GLP-1R, cAMP formation” value in assay [1] amounted to 0.103 nM. In addition, in assay [2], the “EC50 (nM) GluR, cAMP formation” value is 0.151 nM.

B13: Compound 28 (peptide)
peptide: HXQGTFTSDYSKYLDSKAAHDFVEWLLSA
modifications: Aib at position 2; K(Hexadecanoyl-E) (Hexadecanoyl-αGlu) at position 17; C-terminal amide (NH2)
In the case of B13, the “EC50 (nM) GLP-1R, cAMP formation” value in assay [1] stood at 0.149 nM. Also, the “EC50 (nM) GluR, cAMP formation” value in assay [2] came to 0.108 nM.
For the molecule HXQGTFTSDYSKYLDSKAAHDFVEWLLSA (Aib at position 2; K(Hexadecanoyl) at position 17; C-terminal amide (NH2)) [Compound 23], the “EC50 (nM) GLP-1R, cAMP formation” value in assay [1] amounted to 0.14 nM. Moreover, the “EC50 (nM) GluR, cAMP formation” value in assay [2] came to 0.124 nM.
